How the values were obtained:
[1] = system: TCF/LEF transcriptional activity; assay: TOP-FLASH luciferase reporter assay in HEK293 cells cotransfected with LRP6 and Mesd constructs; format: cell-based; conditions: luciferase 48 hours after transfection
Method: (§1) HEK293 cells were plated into six-well plates. For each well, […] of the TOP-[…] luciferase construct (Upstate Biotechnology) was cotransfected with 0.8 μg Mesd-expressing vector, 0.8 μg Mesd mutant-expressing vector, or empty vector. A β-galactosidase-expressing vector (Promega, Madison, Wis.) was included as an internal control for transfection efficiency. After 48 hours, cells were lysed and both luciferase and β-galactosidase activities were determined with enzyme assay kits (Promega). The luciferase activity was determined with a luminometer using the Dual Luciferase Assay system (Promega). Luciferase activity was normalized to the activity of the P-galactosidase.
Activation of canonical Wnt signaling leads to the stabilization of P-catenin and regulation of gene transcription through transcription regulators including lymphoid-enhancing factor (LEF)-1 and T-cell factors (TCF). The TOP-FLASH luciferase reporter contains TCF-binding sites and can be directly activated by the P-catenin/TCF complex (Korinek et al., 1997). LRP6 is cell surface receptor, and only the mature receptor can reach the cell surface and modulate Wnt signaling (Cong et al., 2004). Next examined was the effect of Mesd_C on Wnt signaling using the TOP-FLASH luciferase reporter assay in HEK293 cells. […] The luciferase activity was measured 48 hours after transfection. […]

LRP5 = LRP5 (Homo sapiens, UniProt O75197); assay: ^125I-DKK1 binding to LRP5, competition by Mesd or oligopeptide (FIG. 10B)
Method: In order to investigate the binding of Mesd polypeptide and an Mesd oligopeptide to either LRP5 or LRP6, binding assays were performed using ^125I-Mesd or ^125I-DKK1 (FIG. 10).

Wnt signaling = assay: Wnt signalling TCF/LEF-Luc assay in HEK293 cells (Wnt3A conditioned medium plus Dkk1); format: cell-based; conditions: Wnt3A conditioned medium plus Dkk1 protein at 10 nM
Method: as §1

LRP6 = LRP6 (Homo sapiens, UniProt O75581); assay: LRP6-mediated ^125I-Mesd degradation in LRP6-transduced HT1080 cells; format: cell-based; design: plasmid pCS-Myc-hLRP6 containing the full-length human LRP6 cDNA; HA; expressed in transfected cells; host or cells: human HT1080 cells, stably transduced (pLNCX2 retroviral vector); conditions: ^125I-Mesd 5 nM, 4 hours at 37° C.
Method: Ligand degradation was performed using the methods as described (Li, Y., J. Biol. Chem. 275: 17187-17194, 2000). Briefly, 2×10^5 cells were seeded into 12-well dishes 1 day prior to assay. Pre-warmed assay buffer (minimal Eagle's medium containing 0.6% BSA with radioligand, 0.6 ml/well) was added to cell monolayers in the absence or the presence of unlabeled 500 nM RAP or 500 nM Mesd, followed by incubation for 4 hours at 37° C. Thereafter, the medium overlying the cell monolayers was removed and proteins were precipitated by addition of BSA to 10 mg/ml and trichloroacetic acid to 20%. Degradation of radioligand was defined as the appearance of radioactive fragments in the overlying medium that were soluble in 20% trichloroacetic acid. Kinetic analysis of endocytosis LRP6-transduced HT1080 cells were plated in 12-well plates at a density of 2×10^5 cells/well and used after overnight culture. Cells were rinsed twice in ice-cold assay buffer (minimal Eagle's medium containing 0.6% BSA), and ^125I-anti-HA IgG was added at 1 nM final concentration in cold assay buffer (0.5 ml/well). The binding of ^125Ianti- HA IgG was carried out at 4° C. for 90 minutes with gentle rocking. Unbound ^125I-anti-HA IgG was removed by washing cell monolayers three times with cold assay buffer. Ice-cold stop/strip solution (0.2 M acetic acid, pH 2.6, 0.1 M NaCl) was added to one set of plates without warming up and kept on ice. The remaining plates were then placed in a 37° C. water bath and 0.5 ml assay buffer prewarmed to 37° C. was quickly added to cell monolayers to initiate internalization. After each time point, the plates were quickly placed on ice and the assay buffer was replaced with cold stop/strip solution. ^125I-anti-HA IgG that remained on the cell surface was stripped by incubation of cell monolayers with cold stop/strip solution for a total of 20 minutes (0.75 ml for 10 minutes, twice) and counted. Cell monolayers were then solubilized with low-SDS lysis buffer and counted. […] The fraction of internalized ^125I-anti-HA IgG after each time point was calculated and plotted. […]

Chain of LRP6 (O75581 20-1613): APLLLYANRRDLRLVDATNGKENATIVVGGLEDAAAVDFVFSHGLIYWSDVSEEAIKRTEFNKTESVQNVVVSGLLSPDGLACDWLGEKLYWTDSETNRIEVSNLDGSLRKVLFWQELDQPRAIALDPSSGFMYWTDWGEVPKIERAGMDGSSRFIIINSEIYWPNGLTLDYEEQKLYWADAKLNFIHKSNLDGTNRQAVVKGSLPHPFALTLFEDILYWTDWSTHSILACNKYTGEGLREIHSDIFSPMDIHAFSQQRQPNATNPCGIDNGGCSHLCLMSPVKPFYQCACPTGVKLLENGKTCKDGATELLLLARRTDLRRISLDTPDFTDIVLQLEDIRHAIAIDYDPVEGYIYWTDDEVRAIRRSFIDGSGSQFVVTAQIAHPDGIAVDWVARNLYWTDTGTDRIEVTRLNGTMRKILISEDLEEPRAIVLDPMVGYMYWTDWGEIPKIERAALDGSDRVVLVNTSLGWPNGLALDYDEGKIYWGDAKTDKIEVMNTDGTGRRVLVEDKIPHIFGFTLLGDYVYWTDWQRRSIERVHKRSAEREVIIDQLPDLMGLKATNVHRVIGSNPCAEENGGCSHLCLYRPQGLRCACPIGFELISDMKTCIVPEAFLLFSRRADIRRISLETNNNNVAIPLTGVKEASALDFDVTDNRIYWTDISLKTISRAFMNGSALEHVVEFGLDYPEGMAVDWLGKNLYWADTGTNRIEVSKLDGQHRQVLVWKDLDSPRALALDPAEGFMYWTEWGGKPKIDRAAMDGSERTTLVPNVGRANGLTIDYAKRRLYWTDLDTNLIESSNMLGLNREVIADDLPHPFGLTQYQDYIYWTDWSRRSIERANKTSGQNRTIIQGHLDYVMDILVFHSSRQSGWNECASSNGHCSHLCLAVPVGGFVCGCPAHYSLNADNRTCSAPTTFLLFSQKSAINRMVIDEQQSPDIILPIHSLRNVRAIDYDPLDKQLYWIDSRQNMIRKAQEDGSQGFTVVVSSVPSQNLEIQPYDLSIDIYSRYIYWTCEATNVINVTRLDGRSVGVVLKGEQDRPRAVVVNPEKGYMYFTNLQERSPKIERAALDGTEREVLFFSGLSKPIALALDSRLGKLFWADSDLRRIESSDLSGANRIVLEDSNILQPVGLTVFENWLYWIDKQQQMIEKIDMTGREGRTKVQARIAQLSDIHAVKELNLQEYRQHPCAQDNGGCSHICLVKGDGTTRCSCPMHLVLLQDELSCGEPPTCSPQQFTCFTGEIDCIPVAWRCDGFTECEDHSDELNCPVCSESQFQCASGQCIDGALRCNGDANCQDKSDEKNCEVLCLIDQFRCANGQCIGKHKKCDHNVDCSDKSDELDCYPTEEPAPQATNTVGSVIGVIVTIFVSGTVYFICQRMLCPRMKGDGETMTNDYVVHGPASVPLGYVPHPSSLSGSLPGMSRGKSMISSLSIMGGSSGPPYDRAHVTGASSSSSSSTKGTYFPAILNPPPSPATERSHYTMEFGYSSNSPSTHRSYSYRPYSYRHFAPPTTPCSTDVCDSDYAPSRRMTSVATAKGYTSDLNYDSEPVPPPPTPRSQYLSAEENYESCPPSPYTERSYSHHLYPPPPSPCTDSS
Chain of LRP5 (O75197 32-1615): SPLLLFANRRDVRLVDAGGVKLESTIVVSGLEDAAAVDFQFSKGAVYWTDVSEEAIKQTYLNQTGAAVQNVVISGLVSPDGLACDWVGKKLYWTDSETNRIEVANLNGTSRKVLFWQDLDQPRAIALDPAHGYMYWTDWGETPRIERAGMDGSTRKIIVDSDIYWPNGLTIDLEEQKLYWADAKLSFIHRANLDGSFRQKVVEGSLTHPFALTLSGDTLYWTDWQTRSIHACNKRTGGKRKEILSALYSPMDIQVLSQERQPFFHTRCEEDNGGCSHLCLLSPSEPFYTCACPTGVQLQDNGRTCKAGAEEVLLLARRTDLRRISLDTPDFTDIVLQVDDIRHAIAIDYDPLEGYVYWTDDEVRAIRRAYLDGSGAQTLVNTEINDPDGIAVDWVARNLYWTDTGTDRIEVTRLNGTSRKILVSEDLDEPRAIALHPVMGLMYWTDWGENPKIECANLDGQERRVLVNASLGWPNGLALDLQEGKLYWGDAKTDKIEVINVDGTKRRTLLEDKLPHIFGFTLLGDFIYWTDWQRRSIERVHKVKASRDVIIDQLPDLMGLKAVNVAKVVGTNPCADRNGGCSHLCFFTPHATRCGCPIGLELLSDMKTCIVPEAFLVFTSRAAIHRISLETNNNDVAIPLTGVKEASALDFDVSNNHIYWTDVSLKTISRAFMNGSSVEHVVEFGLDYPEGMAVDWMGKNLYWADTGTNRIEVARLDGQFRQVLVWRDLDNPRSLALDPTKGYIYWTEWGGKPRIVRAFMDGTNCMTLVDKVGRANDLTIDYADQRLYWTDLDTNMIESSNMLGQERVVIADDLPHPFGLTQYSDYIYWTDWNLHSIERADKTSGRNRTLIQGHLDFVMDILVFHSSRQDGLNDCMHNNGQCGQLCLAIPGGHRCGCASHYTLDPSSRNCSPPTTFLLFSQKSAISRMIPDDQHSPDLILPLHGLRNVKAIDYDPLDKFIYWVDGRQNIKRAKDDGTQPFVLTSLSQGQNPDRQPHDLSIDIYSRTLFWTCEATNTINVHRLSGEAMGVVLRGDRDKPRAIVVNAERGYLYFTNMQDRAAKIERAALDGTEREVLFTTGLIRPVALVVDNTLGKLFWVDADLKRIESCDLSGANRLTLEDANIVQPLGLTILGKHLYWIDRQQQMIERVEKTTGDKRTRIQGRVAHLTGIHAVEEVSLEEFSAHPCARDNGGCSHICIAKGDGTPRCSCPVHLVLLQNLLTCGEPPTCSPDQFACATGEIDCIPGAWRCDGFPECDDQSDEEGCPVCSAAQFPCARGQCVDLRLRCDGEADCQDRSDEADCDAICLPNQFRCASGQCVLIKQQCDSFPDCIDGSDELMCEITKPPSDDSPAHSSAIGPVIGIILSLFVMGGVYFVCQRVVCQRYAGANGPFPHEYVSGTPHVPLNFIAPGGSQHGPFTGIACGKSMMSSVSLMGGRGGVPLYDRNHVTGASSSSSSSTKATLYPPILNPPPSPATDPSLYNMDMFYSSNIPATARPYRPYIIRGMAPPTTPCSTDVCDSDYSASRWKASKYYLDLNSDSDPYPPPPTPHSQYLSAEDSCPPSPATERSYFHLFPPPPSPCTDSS

B1: Mesd: recombinant wild-type mouse Mesd, polyhistidine tail at the N-terminus, lacks the signal peptide, expressed in E. coli (protein)
chain: ADTPGEATPPPRKKKDIRDYNDADMARLLEQWEKDDDIEEGDLPEHKRPSAPIDFSKLDPGKPESILKMTKKGKTLMMFVTVSGNPTEKETEEITSLWQGSLFNANYDVQRFIVGSDRAIFMLRDGSYAWEIKDFLVSQDRCAEVTLEGQMYPGKGGGSKEKNKTKPEKAKKKEGDRKPRASKEDNRAGSRREDL
modifications: left off: small tags and cut ends
notes: recombinant wild-type mouse Mesd, polyhistidine tail at the N-terminus, lacks the signal peptide, expressed in E. coli
[1]
  TCF/LEF transcriptional activity (TOP-FLASH) on coexpression: significantly enhanced
LRP5
  Reduction in binding of ^125I-DKK1 to LRP5: small but significant reduction
Wnt signaling
  Restoring of Wnt signaling inhibited by Dkk1 (luciferase activity): at least partially restoring Wnt signaling
LRP6; 500 nM unlabeled competitor
  Inhibition of ^125I-Mesd degradation: completely
LRP6; HT1080 cells transduced with LRP6
  ^125I-Mesd degradation level: 320 fmoles/mg cell protein

Reference: patent publication US20080227698A1, “OLIGOPEPTIDES FOR TREATMENT OF OSTEOPOROSIS AND OTHER BONE DISEASES AND METHODS THEREOF” (Washington University, priority 2005, published 2008)
